Like-named read-outs stand apart in the source and are kept apart here.

The record followed here is paper PMC3618350 (G3: Genes|Genomes|Genetics, 2013).

For experiment [1], the target named is T1, Rad30 (S. cerevisiae, UniProt Q04049 1-632).
T1 sequence (looked up): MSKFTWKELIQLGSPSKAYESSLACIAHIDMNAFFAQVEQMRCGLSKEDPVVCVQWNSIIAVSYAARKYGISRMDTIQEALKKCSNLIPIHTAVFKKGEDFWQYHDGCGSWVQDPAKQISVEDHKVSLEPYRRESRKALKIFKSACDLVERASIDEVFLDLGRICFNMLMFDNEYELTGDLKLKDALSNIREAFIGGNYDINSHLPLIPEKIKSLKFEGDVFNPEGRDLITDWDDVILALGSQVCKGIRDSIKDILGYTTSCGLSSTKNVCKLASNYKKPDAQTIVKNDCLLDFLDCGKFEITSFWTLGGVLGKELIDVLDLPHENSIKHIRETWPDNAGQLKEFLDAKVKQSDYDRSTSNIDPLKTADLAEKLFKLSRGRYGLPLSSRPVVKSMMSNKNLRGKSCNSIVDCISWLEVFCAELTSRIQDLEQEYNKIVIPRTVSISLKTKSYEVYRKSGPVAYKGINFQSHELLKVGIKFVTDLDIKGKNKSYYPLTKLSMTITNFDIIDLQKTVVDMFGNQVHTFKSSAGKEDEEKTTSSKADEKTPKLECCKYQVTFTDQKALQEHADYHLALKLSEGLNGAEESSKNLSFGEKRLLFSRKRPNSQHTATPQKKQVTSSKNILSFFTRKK
Briefly: two-hybrid.

Experiment [2] addresses T1, Rad30. Briefly: two-hybrid. The source holds these as a separate data set.

B1: Rev1 (enzyme, S. cerevisiae, UniProt P12689 1-985, looked up)
chain: MGEHGGLVDLLDSDLEYSINRETPDKNNCLSQQSVNDSHLTAKTGGLNARSFLSTLSDDSLIEYVNQLSQTNKNNSNPTAGTLRFTTKNISCDELHADLGGGEDSPIARSVIEIQESDSNGDDVKKNTVYTREAYFHEKAHGQTLQDQILKDQYKDQISSQSSKIFKNCVIYINGYTKPGRLQLHEMIVLHGGKFLHYLSSKKTVTHIVASNLPLKKRIEFANYKVVSPDWIVDSVKEARLLPWQNYSLTSKLDEQQKKLDNCKTVNSIPLPSETSLHKGSKCVGSALLPVEQQSPVNLNNLEAKRIVACDDPDFLTSYFAHSRLHHLSAWKANLKDKFLNENIHKYTKITDKDTYIIFHIDFDCFFATVAYLCRSSSFSACDFKRDPIVVCHGTKNSDIASCNYVARSYGIKNGMWVSQAEKMLPNGIKLISLPYTFEQFQLKSEAFYSTLKRLNIFNLILPISIDEAVCVRIIPDNIHNTNTLNARLCEEIRQEIFQGTNGCTVSIGCSDSLVLARLALKMAKPNGYNITFKSNLSEEFWSSFKLDDLPGVGHSTLSRLESTFDSPHSLNDLRKRYTLDALKASVGSKLGMKIHLALQGQDDEESLKILYDPKEVLQRKSLSIDINWGIRFKNITQVDLFIERGCQYLLEKLNEINKTTSQITLKLMRRCKDAPIEPPKYMGMGRCDSFSRSSRLGIPTNEFGIIATEMKSLYRTLGCPPMELRGLALQFNKLVDVGPDNNQLKLRLPFKTIVTNRAFEALPEDVKNDINNEFEKRNYKRKESGLTSNSLSSKKKGFAISRLEVNDLPSTMEEQFMNELPTQIRAEVRHDLRIQKKIQQTKLGNLQEKIKRREESLQNEKNHFMGQNSIFQPIKFQNLTRFKKICQLVKQWVAETLGDGGPHEKDVKLFVKYLIKLCDSNRVHLVLHLSNLISRELNLCAFLNQDHSGFQTWERILLNDIIPLLNRNKHTYQTVRKLDMDFEV
For the molecule B1, the figures for the “fold change in reporter activity over the highest negative control” value with Rad30 [1] and with Rad30 [2] were 3.07 fold and 1.47 fold, respectively.
